Reference: the supplement of paper PMC11865577

Assays:
Test in all cases: pull-down binding Z-score (relative to library population); higher = stronger binding
Details in all cases: RNA library: Library-2
[1] = test system: TO-3-N3-2 (biotin conjugate)
Procedure, shortened: (§1)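 Cy5- or Cy3-end-labelled RNA library (1 μg) was heat-folded in phosphate/NaCl/KCl buffer and incubated 60 min at 25 °C with streptavidin beads carrying 100 pmol biotin-conjugated small molecule. After three washes, bound RNA was eluted in hot SDS and hybridised 20 h at 55.5 °C to a DNA barcode microarray. Binding was scored by subtracting a beads-only control, averaging barcoded replicate probes after dropping highest and lowest, and converting to a Z-score against library mean and standard deviation.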

[2] = test system: TO-3-N3 (biotin conjugate)
Procedure, shortened: as §1

[3] = test system: TO-N3-2 (biotin conjugate)
Procedure, shortened: as §1

TO-N3 (biotin conjugate) = test system: TO-N3 (biotin conjugate)
Procedure, shortened: as §1

Sequence | pull-down binding Z-score [1] | pull-down binding Z-score [2] | pull-down binding Z-score [3] | pull-down binding Z-score (TO-N3 (biotin conjugate))
AAAAACACCCAAGAAGUUUUU | -0.458 | -0.552 | -0.932 | -0.802
AAAAAUCUUAGGGAAUUUGUGUUUAAGAAUAUUGAUGGUUAUUUUAAAAUAUAUUCUAAGCACACGCCUAUUAAUUUAGUGCGUGAUCUCCCUCAGGGUUUUU | 0.151 | -0.855 | -0.421 | -0.959
AAACCCGGUAAUUUUAACAAAGACUUCUAUGACUUUGCUGUGUCUAAGGGUUU [SHAPE_invivo_SARS-CoV-2_Motif_278] | -0.338 | -0.52 | -0.917 | -0.677
AAACCUAAUGAAUUAUCUAGAGUAUUAGGUUU [SHAPE_invitro_SARS-CoV-2_Motif_132] | -0.157 | -0.888 | -1.06 | -0.985
AAACGAACUAAAUAUUAUAUUAGUUUUUCUGUUU | 0.491 | -0.375 | -0.324 | -0.211
AAACUCAAACCCGUCCUUGAUUGGCUUGAAGAGAAGUUUAAGGAAGGUGUAGAGUUU | 0.119 | -0.653 | -0.346 | -0.588
AAACUUGUGCCCUUUUGGUGAAGUUUUUAACGCCACCAGAUUUGCAUCUGUUU [SHAPE_invivo_SARS-CoV-2_Motif_425] | -0.449 | -1.12 | -0.751 | -1.3
AAAGGACUGGUAUGAUUUUGUAGAAAACCCAGAUAUAUUACGCGUAUACGCCAACUUAGGUGAACGUGUACGCCAAGCUUU | -0.0434 | -0.541 | 0.0415 | -0.193
AAAGUGCAGUGAAAAGAACAAUCAAGGGUACACACCACUGGUUGUUACUCACAAUUUUGACUUCACUUU | -0.0864 | -0.381 | 0.0106 | -0.172
AAAGUGCUUUUGUUAAUUUAAAACAAUUACCAUUUU [SHAPE_invivo_SARS-CoV-2_Motif_363] | -0.408 | -0.825 | -1.63 | -1.18
AAAUAAGUACGAUACUUACCUG [U1snRNP5ss-3] | 0.279 | -0.109 | 0.324 | -0.0474
AAAUAAGUAUGAUACUUACCUG [U1snRNP5ss-4] | -0.0682 | -0.522 | -0.672 | -0.506
AAAUUACCAUUUCAUCUUUUAAAUGGGAUUU | -0.151 | 0.204 | -1.21 | -0.0633
AAAUUCUUGGAACUGUUUCUUGGAAUUU | -0.163 | -0.802 | -1.37 | -1.22
AAAUUGCCGAUAAGUAUGUCCGCAAUUU | -0.436 | -0.317 | -1.13 | -0.683
AAAUUUACAAAACACCACCAAUUAAAGAUUUUGGUGGUUUUAAUUU [DMSMaPseq_invitro_SARS-CoV-2_Motif_425] | 0.331 | 1.34 | -0.725 | 1.06
AAAUUUACAAGAAUUU [SHAPE_invivo_SARS-CoV-2_Motif_380] | -0.556 | -0.131 | -1.48 | -0.556
AAAUUUUUGGCUUUGUGUGCUGACUCUAUCAUUAUUGGUGGAGCUAAACUUAAAGCCUUGAAUUU [SHAPE_invivo_SARS-CoV-2_Motif_45] | -0.123 | 0.0535 | -0.994 | -0.00867
AACAAAUGUGUCAAUUUCAACUUCAAUGGUUUAACAGGCACAGGUGUU | -0.221 | -0.698 | -0.968 | -0.754
AACACCAGUUUACUCAUUCUUACCUGGUGUU | -0.421 | -0.56 | -1.46 | -0.829
AACACUUCCCACAGAAGUGUU | -0.407 | -0.222 | -0.817 | 0.0543
AACAGCAGACAACCCUUAAGGGUGUAGAAGCUGUU | -0.692 | -0.872 | -0.918 | -1.19
AACAGGAGUCACCUUUUGUU | -0.0265 | -0.0743 | -0.716 | -0.267
AACAUUAACCUCCACACGCAAGUUGUGGACAUGUCAAUGACAUAUGGACAACAGUUUGGUCCAACUUAUUUGGAUGGAGCUGAUGUU | -0.423 | -1 | -0.533 | -1.13
AACAUUUACUUAUGCAUCAGCAUUGUGGGAAAUCCAACAGGUUGUAGAUGCAGAUAGUAAAAUUGUU [DMSMaPseq_invitro_SARS-CoV-2_Motif_222] | -0.0746 | 0.159 | -0.134 | -0.126
AACCAGUUAACUGGUU [SHAPE_invivo_SARS-CoV-2_Motif_126] | -0.406 | 0.328 | -1.24 | 0.00533
AACCAUACAGGUGUUGUUGGAGAAGGUU [DMSMaPseq_invitro_SARS-CoV-2_Motif_31] | 0.125 | 0.0755 | -0.444 | -0.0691
AACCCUCACCUUAUGGGUU | -0.745 | -0.558 | -1.48 | -0.946
